Reference: article PMC9842639, “Insights into pyrrolysine function from structures of a trimethylamine methyltransferase and its corrinoid protein complex” (Communications Biology, 2023)

B1: Methanosarcina barkeri trimethylamine methyltransferase MttB (enzyme, Methanosarcina barkeri MS, UniProt O93658 1-495, looked up)
chain: MAKNNAVAGFNALNGVELNLFTTDELKAIHYATMEVLMDPGIQVSDPEARQIFKENGCEVNEKTNVVKIPEYLVRKALQLAPSRFVLWGRDKKFNTVQECGGKVHWTCFGTGVKVCKYQDGKYVTVDSVEKDIADIAKLCDWAENIDYFSLPVSARDIAGQGAQDVHETLTPLANTAKHFHHIDPVGENVEYYRDIVKAYYGGDEEEARKKPIFSMLLCPTSPLELSVNACQVIIKGARFGIPVNVLSMAMSGGSSPVYLAGTLVTHNAEVLSGIVLAQLTVPGAKVWYGSSTTTFDLKKGTAPVGSPELGLISAAVAKLAQFYGLPSYVAGSOSDAKVPDDQAGHEKTMTTLLPALAGANTIYGAGMLELGMTFSMEQLVIDNDIFSMVKKAMQGIPVSEETLAVESIQKVGIGNNFLALKQTRQLVDYPSNPMLLDRHMFGDWAAAGSKDLATVAHEKVEDVLKNHQVTPIDADIFKDMQAIVDKADKAFRGM
modifications: pyrrolysine at 334 (Pyl334)
notes: Trimethylamine methyltransferase MttB, product of the mttB1 gene amplified from M. barkeri MS genomic DNA; the in-frame amber codon is read as pyrrolysine (Pyl334); residues 2-495 are described in the structure; D3-symmetric homo-hexamer (trimer of dimers) in the crystals; No step that removes the tag is described; The PDB ids are printed in two ways (7XCL/7XCM in the methods, 7LCL/7LCM in the …)

Legend:
MttB = molecular target: T1, MttB (Methanosarcina barkeri, UniProt O93658); experiment: X-ray crystal structure, […] Å; assay type: binding; details: covalent; adduct on imine carbon of Pyl334; crystal soaked with saturated sodium dithionite, pH 4.5
T1 construct: full length with C-terminal GGHHHHHH tag, contains pyrrolysine at 334 (amber codon); expressed in Methanosarcina acetivorans C2A; D3 homohexamer (trimer of dimers)

purified protein = substrate: CN(C)C; experiment: purified protein; assay type: biochemical, Methanosarcina barkeri; details: 30 µM Co(I)-MttC as methyl acceptor, RamA, 2 mM Ti(III)-citrate, 2.5 mM ATP, 2.5 mM MgCl2, phosphate pH 7.2, 37 °C, anaerobic
[1] = molecular target: the molecule itself; experiment: crystal structure; MttB alone; vapor diffusion at 10 °C; 8 mg/mL MttB in 20 mM potassium phosphate pH 7.4, 500 mM NaCl, 240 mM imidazole, 20% glycerol; reservoir 4% MPD, 0.1 M citric acid pH 4.5; 2.5 Å
[2] = molecular target: B1; experiment: crystal structure; MttB-MttC complex; hanging drops at 10 °C of MttB (3 mg/mL) and MttC (10 mg/mL) mixed with 18% PEG8000, 0.1 M citric acid pH 5, 1 M LiCl; crystals soaked with 12.5 mM N,N-dimethyl-hydroxylamine; 2.7 Å, space group P21; details: both partners purified

Molecule | Km (purified protein) | kcat (purified protein) | also measured
O=S(O)O [sulfite] |  |  | X-ray crystal structure, 3.2 Å (MttB): addition of sulfite to the pyrrolysine imine carbon of MttB was observed
MttB (Methanosarcina barkeri; C-TERMINAL/CHANGE/GGHHHHHH/IS/NO/TAG) (protein, full length with C-terminal GGHHHHHH tag, contains pyrrolysine at 334 (amber codon); expressed in Methanosarcina acetivorans C2A; D3 homohexamer (trimer of dimers)) MAKNNAVAGFNALNGVELNLFTTDELKAIHYATMEVLMDPGIQVSDPEARQIFKENGCEVNEKTNVVKIPEYLVRKALQLAPSRFVLWGRDKKFNTVQECGGKVHWTCFGTGVKVCKYQDGKYVTVDSVEKDIADIAKLCDWAENIDYFSLPVSARDIAGQGAQDVHETLTPLANTAKHFHHIDPVGENVEYYRDIVKAYYGGDEEEARKKPIFSMLLCPTSPLELSVNACQVIIKGARFGIPVNVLSMAMSGGSSPVYLAGTLVTHNAEVLSGIVLAQLTVPGAKVWYGSSTTTFDLKKGTAPVGSPELGLISAAVAKLAQFYGLPSYVAGSOSDAKVPDDQAGHEKTMTTLLPALAGANTIYGAGMLELGMTFSMEQLVIDNDIFSMVKKAMQGIPVSEETLAVESIQKVGIGNNFLALKQTRQLVDYPSNPMLLDRHMFGDWAAAGSKDLATVAHEKVEDVLKNHQVTPIDADIFKDMQAIVDKADKAFRGM | 49 ± 6 µM | 48 ± 2 turnovers per min | 
B1 |  |  | stoichiometry N [1]: 6
MttB (Methanosarcina barkeri; Y364F) (protein, full length with C-terminal GGHHHHHH tag, contains pyrrolysine at 334 (amber codon); expressed in Methanosarcina acetivorans C2A; D3 homohexamer (trimer of dimers)) MAKNNAVAGFNALNGVELNLFTTDELKAIHYATMEVLMDPGIQVSDPEARQIFKENGCEVNEKTNVVKIPEYLVRKALQLAPSRFVLWGRDKKFNTVQECGGKVHWTCFGTGVKVCKYQDGKYVTVDSVEKDIADIAKLCDWAENIDYFSLPVSARDIAGQGAQDVHETLTPLANTAKHFHHIDPVGENVEYYRDIVKAYYGGDEEEARKKPIFSMLLCPTSPLELSVNACQVIIKGARFGIPVNVLSMAMSGGSSPVYLAGTLVTHNAEVLSGIVLAQLTVPGAKVWYGSSTTTFDLKKGTAPVGSPELGLISAAVAKLAQFYGLPSYVAGSOSDAKVPDDQAGHEKTMTTLLPALAGANTIFGAGMLELGMTFSMEQLVIDNDIFSMVKKAMQGIPVSEETLAVESIQKVGIGNNFLALKQTRQLVDYPSNPMLLDRHMFGDWAAAGSKDLATVAHEKVEDVLKNHQVTPIDADIFKDMQAIVDKADKAFRGM | 75 ± 11 µM | 1.7 ± 0.1 turnovers per min | 
Methanosarcina barkeri trimethylamine corrinoid protein MttC (natural protein, UniProt O93659 1-217, looked up, Trimethylamine corrinoid protein MttC of M. barkeri; mttC gene cloned by a strategy similar to that for mttB1; helical cap domain residues 2-84, connecting loop 85-95, core domain 96-216; No step that removes the tag is described; also called MttC-His6; cognate corrinoid protein; source: Methanosarcina acetivorans C2A transformed with plasmid pTC311, purified (HiTrap HP column, Mono-Q HR 10/10)) MANKEEIIAKAKEAITDFDDELAEEVANEALAAGIDPVELIEKGFTAGMEEVGEKFGQGELFLPHVLAAAEAMNSGIKVITPEMEKRKSQTKSLGTVAIGTIEGDIHSIGKDIVASMLNIAGFKVVDLGRDVPINTFVEKVKELKPQVVASSALMTTTMVNQIQIEEQLKEAGVRDQVKTMVGGAPVTQDWADKIGADIYGESANDAVAKVKAALNV |  |  | binding result [2]: binds
